Test results published in IntAct's records for PubMed 24302889.

B1: Retinoblastoma-related protein 1 (Arabidopsis thaliana (Mouse-ear cress)), Q9LKZ3 (parent)
chain: MEEVQPPVTPPIEPNGKRSEASLLDICEKVLSLDGSTCDEALKLFTETKRILSASMSNIGSGTREEVERFWFAFILYSVKRLSVRKEADGLSVSGDNEFNLCQILRALKLNIVDFFKELPQFVVKAGSVLGELYGADWENRLQAKEVQANFVHLSLLSKYYKRGFREFFLTYDANAEKNSANSSTYLLDSYRFGWLLFLALRNHAFSRFKDLVTCSNGVVSILAILIIHVPCRFRNFSIQDSSRFVKKGDKGVDLVASLCKIYDASEDELRIVIDKANNLVETILKKKPSPASECQTDKLDNIDPDGLTYFEDLLEETSISTSLITLEKDYYDGKGELDERVFINEEDSLLGSGSLSAGAVNITGVKRKIDALSSPARTFISPLSPHKSPAAKTNGISGATKLAATPVSTAMTTAKWLRTVISPLLPKPSPGLEHFLKSCDRDITNDVTRRAHIILEAIFPNSSLGAQCGGGSLQAVDLMDDIWAEQRRLEACKLYYRVLEAMCKAEAQILHANNLNSLLTNERFHRCMLACSAELVLATHKTITMLFPAVLERTGITAFDLSKVIESFIRHEDSLPRELRRHLNSLEERLLESMVWEKGSSMYNSLIVARPSLALEINQLGLLAEPMPSLDAIAALINFSDGANHASSVQKHETCPGQNGGIRSPKRLCTDYRSILVERNSFTSPVKDRLLALGNVKSKMLPPPLQSAFASPTRPNPGGGGETCAETGINIFFTKINKLAAVRINGMVERLQLSQQIRESVYCFFQHVLAQRTSLLFSRHIDQIILCCFYGVAKISQMSLTFREIIYNYRKQPQCKPLVFRSVYVDALQCRRQGRIGPDHVDIITFYNEIFIPAVKPLLVELGPVRNDRAVEANNKPEGQCPGSPKVSVFPSVPDMSPKKVSAVHNVYVSPLRGSKMDALISHSTKSYYACVGESTHAYQSPSKDLSAINNRLNNSSSNRKRTLNFDAEAGMVSDSMVANSLNLQNQNQNQNGSDASSSGGAAPLKTEPTDS
partner: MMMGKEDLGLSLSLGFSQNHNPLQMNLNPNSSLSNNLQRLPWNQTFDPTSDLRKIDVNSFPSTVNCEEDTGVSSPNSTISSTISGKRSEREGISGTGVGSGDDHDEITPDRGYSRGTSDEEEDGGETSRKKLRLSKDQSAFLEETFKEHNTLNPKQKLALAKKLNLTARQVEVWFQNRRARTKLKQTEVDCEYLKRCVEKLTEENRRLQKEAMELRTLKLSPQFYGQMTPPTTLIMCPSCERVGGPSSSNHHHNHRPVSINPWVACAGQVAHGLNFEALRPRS

Variants of: B1
Settings: with hat2_arath HAT2, P46601

| effect of a mutation on the interaction | Variant |
| --- | --- |
| disrupting interaction strength | N849F |
